Results reported in EP2107116A2.

How the values were obtained:
[1] = biological target: p97 (melanotransferrin) (UniProt P08582); assay: p97-coated plate, scFv-BLA culture broth, bound BLA activity (nitrocefin, 490 nm); ratio T1 (1 h dissociation)/T0 of mutant over parent; pH 6.5
[2] = biological target: p97 (melanotransferrin) (UniProt P08582); assay: p97-coated plate, scFv-BLA culture broth, bound BLA activity (nitrocefin, 490 nm); ratio T1 (1 h dissociation)/T0 of mutant over parent; pH 7.4

UniProt P08582, sequence (P08582 20-709 limits assumed): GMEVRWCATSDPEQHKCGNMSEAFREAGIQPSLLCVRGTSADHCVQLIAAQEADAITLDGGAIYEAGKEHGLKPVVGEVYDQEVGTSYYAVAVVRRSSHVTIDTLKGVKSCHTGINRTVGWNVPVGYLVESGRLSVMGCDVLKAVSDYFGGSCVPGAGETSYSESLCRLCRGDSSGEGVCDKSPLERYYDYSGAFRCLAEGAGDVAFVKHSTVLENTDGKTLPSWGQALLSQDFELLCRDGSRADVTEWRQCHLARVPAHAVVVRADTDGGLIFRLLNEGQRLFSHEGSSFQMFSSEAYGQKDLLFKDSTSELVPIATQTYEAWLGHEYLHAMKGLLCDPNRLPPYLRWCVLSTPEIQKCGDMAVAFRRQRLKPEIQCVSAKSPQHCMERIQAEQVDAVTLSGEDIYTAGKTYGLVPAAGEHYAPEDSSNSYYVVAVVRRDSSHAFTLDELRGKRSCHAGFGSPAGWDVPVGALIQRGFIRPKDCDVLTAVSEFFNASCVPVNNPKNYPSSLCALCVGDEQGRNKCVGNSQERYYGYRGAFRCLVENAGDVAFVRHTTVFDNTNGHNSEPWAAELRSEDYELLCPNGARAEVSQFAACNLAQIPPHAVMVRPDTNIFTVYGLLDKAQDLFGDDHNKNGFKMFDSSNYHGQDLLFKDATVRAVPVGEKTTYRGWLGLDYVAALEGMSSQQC

Substance	Index pH6.5 [1]	Index pH7.4 [2]
ME43 (SGN-17 scFv-BLA, heavy chain K64 to His)	0.65	0.61
ME44 (SGN-17 scFv-BLA, heavy chain R97 to His)	–	0.24
ME46 (SGN-17 scFv-BLA, heavy chain T99 to His)	0.09	0.38
ME47 (SGN-17 scFv-BLA, heavy chain L100 to His)	–	0.24
ME48 (SGN-17 scFv-BLA, heavy chain A101 to His)	0.33	0.49
ME50 (SGN-17 scFv-BLA, heavy chain Y103 to His)	–	0.33
ME51 (SGN-17 scFv-BLA, heavy chain Y104 to His)	–	0.26
ME53 (SGN-17 scFv-BLA, heavy chain M106 to His)	0.8	0.97
ME54 (SGN-17 scFv-BLA, heavy chain D107 to His)	0.7	0.41
ME55 (SGN-17 scFv-BLA, heavy chain Y108 to His)	0.7	0.8
ME56 (SGN-17 scFv-BLA, heavy chain W109 to His)	0.41	0.57
ME58 (SGN-17 scFv-BLA, light chain R58 to His)	0.76	0.92
ME59 (SGN-17 scFv-BLA, light chain Q94 to His)	–	0.28
ME60 (SGN-17 scFv-BLA, light chain S95 to His)	1.09	1.04
ME61 (SGN-17 scFv-BLA, light chain T96 to His)	0.81	0.82
ME63 (SGN-17 scFv-BLA, light chain V98 to His)	–	0.21
ME64 (SGN-17 scFv-BLA, light chain P99 to His)	–	0.35
ME66 (SGN-17 scFv-BLA, light chain T101 to His)	1.73	1.36
